{"source": "paper PMC3353271", "target": "S. cerevisiae enolase (S. cerevisiae (endogenous in strain R11258)) (UniProt P00925)", "experiment": "SEC"}
{"substance": "S. cerevisiae enolase (from UniProt P00925 1-437) (enzyme)", "values": [{"measurement": "stoichiometry N", "result": 2}]}
